Experimental findings from patent publication US20220265819A1 (GEN2 NEUROSCIENCE, published 2022) are described below.

Assay [1] has as its target T1, full length recombinant human 2N4R tau (amino acids 1-441) (human, UniProt P10636 1-758).
T1 construct: Bought (rPeptide); recombinant, non-phosphorylated; also called recombinant tau
In words: SPR Biacore SCK, IgG on Protein A, tau analyte. As for the experimental part: 23.5 Assessment of antibody binding to tau (Biacore SCK analysis): Binding of anti-tau hIgG1 to full length recombinant 2N4R tau (Rpeptide; SEQ ID NO: 2) was assessed using the Biacore T200 (GE Healthcare, Chicago, Ill., USA) running Biacore T200 Evaluation Software V2.0.1. hIgG1 were immobilised on a Protein A capture sensor chip in running buffer (HBS-EP+ buffer containing 1 mg/mL BSA) at 25° C. captured to ˜50 RU at 10 μL/min. For single-cycle kinetics experiments, recombinant 2N4R tau was flowed at concentrations ranging from 5 nM to 40 nM (2-fold dilutions) with an association time of 150 s and a dissociation time of 200 s. Curves were compared to a reference cell that was mock immobilized (no antibody present).
Data were analysed using Langmuir (1:1) binding analysis, describing a 1:1 interaction at the surface: […]
In general terms: SPR reads the build-up and loss of mass on a sensor chip optically.

The target in another assay is T2, Bovine serum albumin (bovine, UniProt P02769 25-607).
T2 construct: Negative control antigen in ELISA; also called BSA
In words: ELISA on 1% BSA, HEK supernatant, anti-human IgG-HRP, n=1. As for the experimental part:
Antigen was removed from wells and the plates were then blocked for 1 hour at RT with 5% dried milk in 1×TBS. Blocking solution was removed, HEK293 cell supernatant (1:100 in 1% BSA/1×TBS) was added to relevant wells, and plates were incubated for 1 hour at RT with gentle shaking. Plates were then washed four times with TBS/0.1% Tween (TBST). Goat-anti-human IgG-HRP antibody (ThermoFisher Scientific, Waltham, Mass. USA), diluted 1:2000 in 5% milk/TBS, was added to each well and plates were incubated for 1 hour at RT with gentle shaking before being washed four times with TBST. 3,3′,5,5′-tetramethylbenzidine (TMB) ELISA solution was added to each well and plates were incubated for 15 mins at RT. An equal volume of 1 M sulfuric acid was added to each well and OD was measured at 450 nm.
Background: In an ELISA, binding on a coated surface is turned into a signal by an enzyme label.

T1 sequence (P10636 other isoform, or with tags, fused parts or gaps limits assumed): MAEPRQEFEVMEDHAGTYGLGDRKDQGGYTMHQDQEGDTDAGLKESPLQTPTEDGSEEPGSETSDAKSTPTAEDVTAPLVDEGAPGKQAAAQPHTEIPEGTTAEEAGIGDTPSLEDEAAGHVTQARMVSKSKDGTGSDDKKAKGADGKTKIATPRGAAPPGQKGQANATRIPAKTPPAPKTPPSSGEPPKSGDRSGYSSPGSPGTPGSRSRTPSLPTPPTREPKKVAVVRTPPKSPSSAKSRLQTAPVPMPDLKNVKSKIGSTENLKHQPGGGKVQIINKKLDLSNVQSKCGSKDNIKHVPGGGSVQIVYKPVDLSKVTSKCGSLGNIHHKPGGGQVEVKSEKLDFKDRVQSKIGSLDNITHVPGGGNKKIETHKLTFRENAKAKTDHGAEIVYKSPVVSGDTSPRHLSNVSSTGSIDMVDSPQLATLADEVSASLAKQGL
T2 sequence (P02769 25-607 limits assumed): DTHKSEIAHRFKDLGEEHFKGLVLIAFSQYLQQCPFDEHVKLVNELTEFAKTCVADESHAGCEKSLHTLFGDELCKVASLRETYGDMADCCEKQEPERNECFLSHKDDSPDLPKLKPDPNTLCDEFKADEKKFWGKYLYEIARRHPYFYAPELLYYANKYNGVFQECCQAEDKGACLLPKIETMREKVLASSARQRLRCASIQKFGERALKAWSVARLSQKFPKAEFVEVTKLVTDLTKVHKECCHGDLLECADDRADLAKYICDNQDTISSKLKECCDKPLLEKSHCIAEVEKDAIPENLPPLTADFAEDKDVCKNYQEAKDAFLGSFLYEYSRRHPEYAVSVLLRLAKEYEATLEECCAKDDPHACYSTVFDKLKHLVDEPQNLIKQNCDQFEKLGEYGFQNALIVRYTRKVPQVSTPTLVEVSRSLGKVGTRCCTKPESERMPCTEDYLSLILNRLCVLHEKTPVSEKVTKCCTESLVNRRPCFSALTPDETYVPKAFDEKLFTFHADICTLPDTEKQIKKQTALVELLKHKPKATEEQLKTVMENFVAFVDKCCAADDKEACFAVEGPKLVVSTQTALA

B1: Clone 26 (VH4Vκ1), humanised variant of clone #28, human IgG1 (antibody, V domains shown)
VH: QVQLQESGPGLVKPSETLSLTCTVSGFSLNNYDMSWVRQAPGKGLEWIGTVSTTYRRYYASWAKGRFTISKDTSSTTVDLQMTSLTAEDTATYFCAASGIWGRGTLVTVSS
VL: AQVLTQSTSPLSASVGDRVTITCQSSQRVYSNYLAWYQQKPGQPPKRLIFLASTLESGVPSRFSGSGSGTEFTLTISSLQCDDFATYYCAGTYTGSIWAFGGGTEVVIK
notes: also called VH4VK1
A word on the Kd: it is the free concentration of one partner at which half of the binding sites on the other are occupied at equilibrium, for simple one-to-one binding. By koff is commonly meant the rate constant with which the complex falls apart. As usually defined, the kon is a measure of how fast the partners come together. On to B1, for which, in assay [1], the equilibrium dissociation constant (Kd) was determined as 57.6 nM, the “Relative KD” value is 1.27 fold vs VH0VK0, the off-rate (koff) came to 0.00336 s⁻¹ and the on-rate (kon) was found to be 58300 M⁻¹ s⁻¹. For the same molecule, the binding result with Bovine serum albumin was “no binding (tested: supernatant 1:100)”.

B2: Clone 23 (VH3Vκ2), humanised variant of clone #28, human IgG1 (antibody, V domains shown)
VH: QVQLQESGPGLVKPSETLSLTCTVSGFSLNNYDMSWVRQAPGKGLEWIGTVSTTYRRYYASWAKGRFTISKTSSTTVDLQMTSLTAEDTATYFCAASGIWGRGTLVTVSS
VL: AQVLTQSPSTLSASVGDRVTITCQSSQRVYSNYLAWYQQKPGQPPKRLIFLASTLESGVPSRFSGSGSGTEFTLTISSLQPDDFATYYCAGTYTGSIWAFGGGTKVEIK
notes: also called VH3VK2
With B2, in assay [1], the Kd was 51.3 nM, the “Relative KD” value worked out at 1.13 fold vs VH0VK0, the koff worked out at 0.00253 s⁻¹ and the on-rate (kon) was 49400 M⁻¹ s⁻¹. For the same molecule, the binding result with Bovine serum albumin was “no binding (tested: supernatant 1:100)”.

B3: Clone 15 (VH1Vκ2), humanised variant of clone #28, human IgG1 (antibody, V domains shown)
VH: QSLQESGGGLVKPSETLSLTCTVSGFSLNNYDMSWVRQAPGKGLEWIGTVSTTYRRYYASWAKGRFTISKTSSTTVDLKMTSLTAEDTATYFCAASGIWGRGTLVTVSS
VL: AQVLTQSPSTLSASVGDRVTITCQSSQRVYSNYLAWYQQKPGQPPKRLIFLASTLESGVPSRFSGSGSGTEFTLTISSLQPDDFATYYCAGTYTGSIWAFGGGTKVEIK
notes: also called VH1VK2
Take B3: in assay [1], the Kd came out at 44.1 nM, the “Relative KD” value is 0.97 fold vs VH0VK0, the koff was found to be 0.00294 s⁻¹ and the on-rate (kon) is 66800 M⁻¹ s⁻¹. Further, the binding result with Bovine serum albumin was “no binding (tested: supernatant 1:100)”.

B4: Clone 29 (VH4Vκ5), humanised variant of clone #28, human IgG1 (antibody, V domains shown)
VH: QVQLQESGPGLVKPSETLSLTCTVSGFSLNNYDMSWVRQAPGKGLEWIGTVSTTYRRYYASWAKGRFTISKDTSSTTVDLQMTSLTAEDTATYFCAASGIWGRGTLVTVSS
VL: DIQMTQSPSTLSASVGDRVTITCQSSQRVSSSYLAWYQQKPGQPPKRLIFLASTLESGVPSRFSGSGSGTEFTLTISSLQPDDFATYYCAGTYTGSIWAFGGGTKVEIK
notes: also called VH4VK5
B4: in assay [1], the dissociation constant (Kd) was found to be 114 nM, the “Relative KD” value is 2.52 fold vs VH0VK0, the koff turned out to be 0.00409 s⁻¹ and the kon worked out at 35900 M⁻¹ s⁻¹. The binding result in the assay with Bovine serum albumin is reported as “no binding (tested: supernatant 1:100)”.

B5: Clone 25 (VH3Vκ5), humanised variant of clone #28, human IgG1 (antibody, V domains shown)
VH: QVQLQESGPGLVKPSETLSLTCTVSGFSLNNYDMSWVRQAPGKGLEWIGTVSTTYRRYYASWAKGRFTISKTSSTTVDLQMTSLTAEDTATYFCAASGIWGRGTLVTVSS
VL: DIQMTQSPSTLSASVGDRVTITCQSSQRVSSSYLAWYQQKPGQPPKRLIFLASTLESGVPSRFSGSGSGTEFTLTISSLQPDDFATYYCAGTYTGSIWAFGGGTKVEIK
notes: also called VH3VK5
As to B5, in assay [1], the dissociation constant (Kd) turned out to be 38.9 nM, the “Relative KD” value stood at 0.86 fold vs VH0VK0, the off-rate (koff) is 0.00316 s⁻¹ and the on-rate constant (kon) worked out at 81300 M⁻¹ s⁻¹. Also, in the assay with Bovine serum albumin, the binding result is reported as “no binding (tested: supernatant 1:100)”.

B6: Clone 35 (VH6Vκ2), humanised variant of clone #28, human IgG1 (antibody, V domains shown)
VH: QVQLQESGPGLVKPSETLSLTCTVSGFSLNNYDMSWVRQAPGKGLEWIGTVSTTYRRYYADSVKGRFTISRDNSKNTLDLQMTSLTAEDTATYFCAASGIWGRGTLVTVSS
VL: AQVLTQSPSTLSASVGDRVTITCQSSQRVYSNYLAWYQQKPGQPPKRLIFLASTLESGVPSRFSGSGSGTEFTLTISSLQPDDFATYYCAGTYTGSIWAFGGGTKVEIK
notes: also called VH6VK2
As to B6, in assay [1], the Kd came to 222 nM, the “Relative KD” value was determined as 4.9 fold vs VH0VK0, the koff turned out to be 0.00533 s⁻¹ and the kon was 24000 M⁻¹ s⁻¹. In addition, the binding result with Bovine serum albumin is “no binding (tested: supernatant 1:100)”.

B7: Clone 33 (VH5Vκ5), humanised variant of clone #28, human IgG1 (antibody, V domains shown)
VH: QVQLQESGPGLVKPSETLSLTCTVSGFSLNNYDMSWVRQAPGKGLEWIGTVSTTYRRYYASWAKGRFTISRDNSKNTLDLQMTSLTAEDTATYFCAASGIWGRGTLVTVSS
VL: DIQMTQSPSTLSASVGDRVTITCQSSQRVSSSYLAWYQQKPGQPPKRLIFLASTLESGVPSRFSGSGSGTEFTLTISSLQPDDFATYYCAGTYTGSIWAFGGGTKVEIK
notes: also called VH5VK5
For B7, in assay [1], the dissociation constant Kd turned out to be 60.6 nM, the “Relative KD” value was 1.34 fold vs VH0VK0, the koff amounted to 0.00354 s⁻¹ and the kon was determined as 58400 M⁻¹ s⁻¹. Also, the binding result with Bovine serum albumin is recorded as “no binding (tested: supernatant 1:100)”.

B8: Clone 34 (VH6Vκ1), humanised variant of clone #28, human IgG1 (antibody, V domains shown)
VH: QVQLQESGPGLVKPSETLSLTCTVSGFSLNNYDMSWVRQAPGKGLEWIGTVSTTYRRYYADSVKGRFTISRDNSKNTLDLQMTSLTAEDTATYFCAASGIWGRGTLVTVSS
VL: AQVLTQSTSPLSASVGDRVTITCQSSQRVYSNYLAWYQQKPGQPPKRLIFLASTLESGVPSRFSGSGSGTEFTLTISSLQCDDFATYYCAGTYTGSIWAFGGGTEVVIK
notes: also called VH6VK1
Take B8: in assay [1], the dissociation constant Kd was determined as 141 nM, the “Relative KD” value was 3.11 fold vs VH0VK0, the koff turned out to be 0.00525 s⁻¹ and the association rate constant (kon) worked out at 37300 M⁻¹ s⁻¹. Besides, in the assay with Bovine serum albumin, the binding result was “no binding (tested: supernatant 1:100)”.

B9: Clone 37 (VH6Vκ5), humanised variant of clone #28, human IgG1 (antibody, V domains shown)
VH: QVQLQESGPGLVKPSETLSLTCTVSGFSLNNYDMSWVRQAPGKGLEWIGTVSTTYRRYYADSVKGRFTISRDNSKNTLDLQMTSLTAEDTATYFCAASGIWGRGTLVTVSS
VL: DIQMTQSPSTLSASVGDRVTITCQSSQRVSSSYLAWYQQKPGQPPKRLIFLASTLESGVPSRFSGSGSGTEFTLTISSLQPDDFATYYCAGTYTGSIWAFGGGTKVEIK
notes: also called VH6VK5
Turning to B9, in assay [1], the dissociation constant (Kd) was 123 nM, the “Relative KD” value stood at 2.72 fold vs VH0VK0, the koff stood at 0.00544 s⁻¹ and the on-rate (kon) is 44300 M⁻¹ s⁻¹. Also, the binding result with Bovine serum albumin was “no binding (tested: supernatant 1:100)”.

B10: Clone 22 (VH3Vκ1), humanised variant of clone #28, human IgG1 (antibody, V domains shown)
VH: QVQLQESGPGLVKPSETLSLTCTVSGFSLNNYDMSWVRQAPGKGLEWIGTVSTTYRRYYASWAKGRFTISKTSSTTVDLQMTSLTAEDTATYFCAASGIWGRGTLVTVSS
VL: AQVLTQSTSPLSASVGDRVTITCQSSQRVYSNYLAWYQQKPGQPPKRLIFLASTLESGVPSRFSGSGSGTEFTLTISSLQCDDFATYYCAGTYTGSIWAFGGGTEVVIK
notes: also called VH3VK1
For B10, in assay [1], the Kd was 43.9 nM, the “Relative KD” value was found to be 0.97 fold vs VH0VK0, the koff came out at 0.00249 s⁻¹ and the on-rate constant (kon) turned out to be 56700 M⁻¹ s⁻¹. The binding result with Bovine serum albumin is given as “no binding (tested: supernatant 1:100)”.

B11: Clone 14 (VH1Vκ1), humanised variant of clone #28, human IgG1 (antibody, V domains shown)
VH: QSLQESGGGLVKPSETLSLTCTVSGFSLNNYDMSWVRQAPGKGLEWIGTVSTTYRRYYASWAKGRFTISKTSSTTVDLKMTSLTAEDTATYFCAASGIWGRGTLVTVSS
VL: AQVLTQSTSPLSASVGDRVTITCQSSQRVYSNYLAWYQQKPGQPPKRLIFLASTLESGVPSRFSGSGSGTEFTLTISSLQCDDFATYYCAGTYTGSIWAFGGGTEVVIK
notes: also called VH1VK1
For the molecule B11, in assay [1], the Kd was 36.6 nM, the “Relative KD” value was 0.81 fold vs VH0VK0, the dissociation rate constant (koff) stood at 0.00308 s⁻¹ and the kon was 84000 M⁻¹ s⁻¹. Besides, the binding result in the assay with Bovine serum albumin is “no binding (tested: supernatant 1:100)”.

B12: Clone 36 (VH6Vκ4), humanised variant of clone #28, human IgG1 (antibody, V domains shown)
VH: QVQLQESGPGLVKPSETLSLTCTVSGFSLNNYDMSWVRQAPGKGLEWIGTVSTTYRRYYADSVKGRFTISRDNSKNTLDLQMTSLTAEDTATYFCAASGIWGRGTLVTVSS
VL: DIQMTQSPSTLSASVGDRVTITCQSSQRVYSNYLAWYQQKPGQPPKRLIFLASTLESGVPSRFSGSGSGTEFTLTISSLQPDDFATYYCAGTYTGSIWAFGGGTKVEIK
notes: also called VH6VK4
For B12, in assay [1], the Kd was 123 nM, the “Relative KD” value is 2.72 fold vs VH0VK0, the koff was 0.00406 s⁻¹ and the on-rate constant (kon) was determined as 33100 M⁻¹ s⁻¹. For the same molecule, in the assay with Bovine serum albumin, the binding result is recorded as “no binding (tested: supernatant 1:100)”.

B13: Clone 30 (VH5Vκ1), humanised variant of clone #28, human IgG1 (antibody, V domains shown)
VH: QVQLQESGPGLVKPSETLSLTCTVSGFSLNNYDMSWVRQAPGKGLEWIGTVSTTYRRYYASWAKGRFTISRDNSKNTLDLQMTSLTAEDTATYFCAASGIWGRGTLVTVSS
VL: AQVLTQSTSPLSASVGDRVTITCQSSQRVYSNYLAWYQQKPGQPPKRLIFLASTLESGVPSRFSGSGSGTEFTLTISSLQCDDFATYYCAGTYTGSIWAFGGGTEVVIK
notes: also called VH5VK1
On to B13, for which, in assay [1], the Kd amounted to 75.7 nM, the “Relative KD” value worked out at 1.67 fold vs VH0VK0, the dissociation rate constant (koff) turned out to be 0.00351 s⁻¹ and the kon came out at 46300 M⁻¹ s⁻¹. Moreover, the binding result in the assay with Bovine serum albumin is reported as “no binding (tested: supernatant 1:100)”.
